Data taken from US12624096B2, “Anti-tau antibodies and methods of use thereof” (GTInvent Limited, priority 2020, dated 2026).
Entries after “also recorded” stand apart in the source; their conditions may differ.

Experiments:
plasma tau = assay: Plasma tau (Simoa) after S1D12 immunotherapy; format: in vivo, mouse; set-up: plasma tau, core and proline region pairing (S1G2-BT2) / plasma tau, proline region pairing (BT2-HT7): unit not given here
Method: (§1) In a six-week repeat-dose study, a total of 12 WT, 12 Line 1 (L1) and 12 Line 66 homozygotes (L66+/*) female mice aged 2-months at the beginning of the study were used (Table 32 for group size). Mice in each genotype were injected intraperitoneally (i.p.) with either vehicle or S1D12 (30 mg/kg), once per week, for six consecutive weeks.
Three-step assays were performed and analysed as per previously described plasma screening methods in this document.

[1] = Six-week repeat-dose study, S1D12 mAb in plasma and brain; format: in vivo, mouse
Method: as §1
Mice treated with S1D12 were culled seven days after the last dosing whereas vehicle-treated animals were sacrificed the following day, i.e. 8 days post-treatment. Mice were anaesthetized using an overdose of sodium pentobarbital administered intraperitoneally for blood collection. Blood was transferred to plastic vials containing lithium heparin anticoagulant, centrifuged to obtain the plasma and the entire brain was removed as described previously. Plasma and brain samples (stored at −20° C., and −80° C., respectively) were subjected to further biochemical analysis.

aggregated dGAE = aggregated dGAE (Homo sapiens, UniProt P10636); assay: Capture ELISA ranking of mAbs on dGAE aggregates; format: binding; settings: 1 μg/ml capture mAb, 800 nM aggregated dGAE
Sequence of aggregated dGAE (P10636 614-708): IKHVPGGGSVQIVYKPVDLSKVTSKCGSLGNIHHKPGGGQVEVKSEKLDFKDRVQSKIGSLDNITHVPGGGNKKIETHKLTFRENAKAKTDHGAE
Method: The aggregation cascade of natively unfolded tau into insoluble filaments is a defining pathological feature of AD. Therefore, it is logical to target aggregated tau filaments for both therapeutic and diagnostic purposes. The following experiment was performed to assess the ability of our dGA mAb panel to bind aggregated dGAE using a capture ELISA method. Aggregates were prepared by incubating 100 μM dGAE and 10 mM dTT for 24 h at 37° C. with shaking at 700 RPM. The following day, dGAE aggregates were centrifuged at 17,000×g for 20 min and the supernatant was removed. The remaining pellet was washed with 10 mM phosphate buffer and centrifuged as above. Washing was repeated a further two times to remove any remaining dGAE monomer. The dGAE pellet was resuspended in 100 μl of 10 mM phosphate buffer. (Using a separate capture ELISA based quantification, we have worked out the efficiency of our dGAE aggregation as 80%)
For assessing the mAb panel for aggregate binding, designated rows of a maxisorp plate were coated with 1 μg/ml of each of the capture mAbs (S1D12, S1G2, CA4, NS2A1, CE2, E2E8 and CB7) and blocked as before. Following washing, 800 nM aggregated dGAE was added to the designated wells, double diluted across the plate and incubated for 1 h at RT. The plate was washed again and 1 μg/ml S1G2 scAb was added as detection antibody and incubated for 1 h at RT. To the row where S1G2 mAb was used for capture, […] s1D12 scAb was added as […] instead of S1G2. The assay was developed using HRP labelled HuCK as described previously.

dGAE aggregates = dGAE aggregates (Homo sapiens, UniProt P10636); assay: Sandwich ELISA on SDS/Triton X-100 treated dGAE aggregates; format: binding; settings: S1D12 mAb capture, S1G2 scAb detection; SDS + Triton X-100 treated
Sequence of dGAE aggregates (P10636 614-708): as above
Method: For aggregation, 1000 μL 100 μM dGAE+10 μL 10 mM DTT was added to a ‘LoBind’ microfuge tubes and agitated at 700 RPM/37° C., for 24 hours. Resulting sample centrifuged at 17,000×g/4° C., for 60 min and supernatant discarded to remove left over monomer. Pellet resuspended in half the original volume for future experiments and hereafter referred to as ‘aggregates’. 1 μl of aggregates was added to 1 ml of PBS and SDS was added to a final concentration of 1% (w/v). This was left to incubate on lab bench for 1 h with gentle agitation every 15 minutes. In order to neutralise the SDS effect on ELISA, Triton X-100 added to a final concentration of 3% (v/v) and mixed gently by pipetting to prevent any bubble formation. […] Similarly aggregates treated with only SDS or Triton X-100, untreated aggregates, dGAE monomers treated with only SDS or SDS+Titon X-100 were also added to designated wells as controls. All samples were then double diluted across the plate in final volumes of 100 μl. The final column was left with no protein to act as a blank. This was allowed to stand at room temperature for 1 hour followed by the addition of detection scAb-S1G2 at 10 μg/ml. Anti-HuCk HRP labelled secondary antibody was added as described previously and ELISA data generated was represented using the graph below. In addition, limits of detection (LoD) of various core binding antibody pairing for SDS Triton X-100 treated dGAE aggregates were calculated using the above describe ELISA method and substituting capture mAbs and detection scAbs as shown in Table 30.

human tau = target: T1, human tau (Homo sapiens, UniProt P10636, G652D/P618S); assay: Western blot ratio of human to mouse tau in L66+/+ brain after 6-week S1D12 mAb therapy; format: in vivo; settings: L66+/+ mice, 30 mg/kg i.p. weekly for 6 weeks vs vehicle, S1G2 detection
T1 construct: sample A with 5 nM full length human tau (hT40); from tissue; host or cells: brain homogenate of L66+/+ transgenic mice expressing the human tau transgene
T1 sequence (P10636 1-441 isoform P10636-8 P301S/G335D): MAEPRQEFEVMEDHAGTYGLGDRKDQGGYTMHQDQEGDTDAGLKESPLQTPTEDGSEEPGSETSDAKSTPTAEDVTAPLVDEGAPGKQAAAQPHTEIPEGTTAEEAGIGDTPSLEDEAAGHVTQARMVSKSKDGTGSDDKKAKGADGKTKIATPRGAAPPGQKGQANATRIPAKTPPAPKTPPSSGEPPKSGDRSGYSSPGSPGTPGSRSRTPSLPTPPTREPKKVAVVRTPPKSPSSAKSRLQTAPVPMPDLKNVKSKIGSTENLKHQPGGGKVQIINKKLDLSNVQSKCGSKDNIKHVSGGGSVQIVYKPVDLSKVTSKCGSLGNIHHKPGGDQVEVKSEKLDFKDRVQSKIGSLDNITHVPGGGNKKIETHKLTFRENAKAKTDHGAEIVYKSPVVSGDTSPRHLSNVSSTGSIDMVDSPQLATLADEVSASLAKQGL
Method: as §1
A hemisphere of each Line 66^+/+ mouse brain was suspended in RIPA buffer and homogenised. Samples were left on ice for 1 hour and subsequently centrifuged for 10 minutes at 10,000×g at 4° C. The supernatant was collected, and the total protein was quantified using a BCA Protein Assay Kit. Brain homogenate supernatant from each mouse was separated via sodium dodecyl sulphate polyacrylamide gel electrophoresis (SDS-PAGE) with MES running buffer. […] Following washing, the secondary antibody, sheep anti-mouse IgG-HRP, was added, and the membrane was washed five times with PBST and developed with Clarity Western ECL Substrate and read using a BioSpectrum Gel imaging System (UVP). Results were analysed using ImageJ-Fiji (NIH, Version 1.53) where densitometric analysis was performed and the ratio of human to mouse tau densities was calculated.

[2] = Pharmacokinetic study of S1D12 mAb, single dose, plasma and brain (dGAE ligand binding ELISA); format: in vivo, mouse; settings: single dose 30 mg/kg i.p., NMRI mice
Method: For the PK study, a total of 42 female NMRI mice (Swiss-type mouse, Naval Medical Research Institute) aged 6 months were allocated into six groups according to sample collection time (Table 30 for group size). Animals were injected intraperitoneally with S1D12 (30 mg/kg) and sacrificed 24-, 48-, 72-hours and 7-, 14- and 31-days after injection to collect blood and brain samples. A control group was also included in which animals were sacrificed to collect blood and brain, but no test item was administered.
Blood samples were centrifuged to obtain plasma at 2000×g for 5 min at 6° C., and samples were stored at −20° C. After blood collection, each mouse was perfused with heparinized saline for 2-3 minutes and the entire brain removed rapidly and snap frozen in liquid nitrogen and stored at −80° C.
Briefly, dGAE (1 μg/mL) was used to coat ELISA plates and blocked with 2% Marvel. […] Following washing, HRP-conjugated anti-mouse IgG as detector was added, and the assay developed using TMB solution as normal. The absorbance at 450 nm was read using a Clariostar plate reader (BMG Labtech) and MARS Clariostar software used to calculate S1D12 concentration from a standard curve.
Average values from each group (representing a time point) was plotted (FIG. 10) and the in vivo half-life, Cmax and Tmax calculated by performing a non-compartmental analysis of the plasma data using the PKSolver2.0 software (FIG. 51, Table 31). […] Here a higher coating concertation of dGAE at 10 μg/ml was used to compete off antibody binding to tau present in the brain.

hT40 = hT40 (Homo sapiens, UniProt P10636); assay: Biacore X100 SPR, scAb captured via anti-HuCk, hT40 as analyte; format: binding; settings: '3a' and '3b' scAbs, Table 25, hT40
Sequence of hT40 (P10636 1-441 isoform P10636-8): as the sequence (P10636 1-441 isoform P10636-8 P301S/G335D) above, with S301P, D335G counted along it
Procedure, shortened: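 Captured scAb on anti-HuCk CM5 surface (flow cell 1 as reference) in HBS-EP+, capture set for theoretical RMax 100 RU; hT40 injected multi-cycle (0.15625–100 nM) or single-cycle (6.25–100 nM), 120 s association, 420 s dissociation, glycine pH 2.0 regeneration. Kinetics and affinity from 1:1 binding model fit.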

[3] = target: hT40, dGA, dGAE and truncated tau fragments/peptides (Homo sapiens, UniProt P10636); assay: Binding ELISA for epitope mapping with truncated tau proteins and biotinylated 13mer peptides; settings: scAbs used as negative controls in thioflavin T assay; data not shown
Sequence of hT40, dGA, dGAE and truncated tau fragments/peptides (P10636 614-708): as the sequence (P10636 614-708) above
Method: A series of binding ELISA was performed using various truncated versions of the tau protein and 13mer peptide libraries spanning the entire hT40 molecule for mapping the epitopes of anti-tau scAbs (Full list of protein antigens used is given in Table 14). In general, ELISA plates were coated with 1 μg/ml hT40 or dGA or dGAE or other truncated versions of the protein and in the case of biotinylated peptides, plates were coated with 5 μg/ml Streptavidin followed by 1 μg/ml biotinylated peptide. The plates were blocked with 2% MPBS and scAb samples added at desired starting concentrations and double diluted across the plate. Binding was detected using anti-Human C Kappa HRP conjugated secondary antibody and the resulting immunoreaction was developed and absorbance values measured as described above.
Similarly, dGA binding ‘NS’, ‘S’ and ‘M’ group scAbs were subjected to further antigen binding ELISA using shorter tau proteins and biotinylated 13mer peptides as shown below (FIGS. 10A-F) and (FIGS. 11A-R).
For anti-tau mAb SPR measurements (Biacore X100™) and epitope mapping, the same methodologies described above (see Example 16) were followed.

Molecule | difference in plasma tau vs vehicle, S1G2-BT2 (plasma tau; L1 and wildtype mice) | plasma tau, core and proline region pairing (S1G2-BT2) (plasma tau; L66+/+ mice, S1D12 mAb 30 mg/kg weekly for 6 weeks) | increase in plasma tau vs vehicle, S1G2-BT2 (plasma tau; L66 mice) | plasma tau, proline region pairing (BT2-HT7) (plasma tau; L66 mice, S1D12 mAb 30 mg/kg weekly for 6 weeks) | increase in S1D12 concentration in plasma following repeat dosing ([1]; WT mice, 30 mg/kg once per week for 6 weeks vs single dose, 7 days post dose) | plasma S1D12 antibody crossing the blood brain barrier ([1]; WT, L1 and L66+/+ mice, 30 mg/kg weekly for 6 weeks) | ability to capture aggregated dGAE (aggregated dGAE) | dGAE aggregates detectable in sandwich ELISA (dGAE aggregates) | ratio of human tau to mouse tau in brain (human tau) | Tmax in the brain [2] | Cmax ([2]; read-out: Cmax in the brain) | ka (hT40) | kd (hT40) | cross reactivity to dGAE [3]
S1D12 mAb: S1D12 reformatted as mAb, heavy chain SEQ ID NO: 445, light chain SEQ ID NO: 446 (antibody, S1D12 mAB Heavy Chain; S1D12 mAB Light Chain) heavy: QVQLQESGPSLVKPSQTLSLTCTVSGFSLNNNAVGWVRQAPGKVPESLVGCSSDGTCYYNSALKSRLDITRDTSKNQISLSLSSVTTDDAAVYYCTRGHYSIYGYDYLGTIDYWGPGLLVTVSSAKTTAPSVYPLAPVCGDTTGSSVTLGCLVKGYFPEPVTLTWNSGSLSSGVHTFPAVLQSDLYTLSSSVTVTSSTWPSQSITCNVAHPASSTKVDKKIEPRGPTIKPCPPCKCPAPNLLGGPSVFIFPPKIKDVLMISLSPIVTCVVVDVSEDDPDVQISWFVNNVEVHTAQTQTHREDYNSTLRVVSALPIQHQDWMSGKEFKCKVNNKDLPAPIERTISKPKGSVRAPQVYVLPPPEEEMTKKQVTLTCMVTDFMPEDIYVEWTNNGKTELNYKNTEPVLDSDGSYFMYSKLRVEKKNWVERNSYSCSVVHEGLHNHHTTKSFSRTPGK light: QAVLTQPSSVSGSLGQRVSITCSGSSSNVGGGNSVGWYQHLPGSGLKTIIYDTNSRPSGVPDRFSGSRSGNTATLTINSLQAEDEGDYYCVTGDSTTHDDLVGSGTRLTVLGGQPKSSPSVTLFPPSSEELETNKATLVCTITDFYPGVVTVDWKVDGTPVTQGMETTQPSKQSNNKYMASSYLTLTARAWERHSSYSCQVTHEGHTVEKSLSRADCS | not statistically significant | 1438±275 | more than a threefold increase | 127±55 | > 3 fold | 0.15-0.3% | most efficient at capturing aggregated dGAE | approximately 2 ng/ml | A decrease in the ratio of human tau to mouse tau; also recorded: A decrease in the levels of human tau was observed | 48 h | 6.2 nM | – | – | –
3aD3: anti-tau clone, SEQ ID NO: 422 (protein, 3aD3 amino acid sequence) scFv: QVQLQESGPSLVKPSQTLSLTCTVSGFSLTSNGVGWVRRAPGKVPEWVGDISSGGKVYGHPALKSRLSITRDTSKSQVSLSVSSVTSEDTAVYYCVRCRDGGVSYGYDSDYWGPGLLVTVSSEGKSSGASGESKVDDQAVVTQPSSVSKSLGQSVSITCSGSSSNVGYGDYVGWFQQVPGSAPKLLIYGVTERASGVPDRFSGSRSGNTATLTISSIQAEDEADYYCASYDDSSGGIFGSGTRLTVLG | – | – | – | – | – | – | – | – | – | – | – | 544400 M⁻¹ s⁻¹ | 0.01038 s⁻¹ | no cross reactivity to dGAE
